Experimental data taken from the supplement of paper PMC9112550, “Optimization of the antimicrobial peptide Bac7 by deep mutational scanning” (BMC Biology, 2022).

tested on: Escherichia coli TOP10; test: shrunken log2 fold change of peptide-encoding DNA abundance (4.5 h post-induction vs induction); higher = less antimicrobial activity (less host growth inhibition); settings: time post-induction: 4.5 h; library: site-saturation at positions 5, 18, 19, 20
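Further: peptides expressed intracellularly from a pBAD plasmid library in pooled LB shake-flask culture, induced with 0.3% L-arabinose, DNA abundance read by NGS, three biological replicates, DESeq2 with apeglm shrinkage.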

In order of rising “shrunken log2 fold change” value:
1. RRIRCRPPRLPRPRPRPDKSPRP  -1.38
2. RRIRCRPPRLPRPRPRPFIQPRP  -1.04
3. RRIRCRPPRLPRPRPRPDNYPRP  -0.921
4. RRIRCRPPRLPRPRPRPGYNPRP  -0.88
5. RRIRCRPPRLPRPRPRPGMYPRP  -0.848
6. RRIRCRPPRLPRPRPRPCYNPRP  -0.837
7. RRIRCRPPRLPRPRPRPFIYPRP  -0.808
8. RRIRCRPPRLPRPRPRPCTPPRP  -0.778
9. RRIRCRPPRLPRPRPRPHCSPRP  -0.769
10. RRIRCRPPRLPRPRPRPDTHPRP  -0.716
11. RRIRCRPPRLPRPRPRPCQTPRP  -0.7
12. RRIRCRPPRLPRPRPRPDHTPRP  -0.699
13. RRIRCRPPRLPRPRPRPFMLPRP  -0.697
14. RRIRCRPPRLPRPRPRPHAFPRP  -0.647
15. RRIRCRPPRLPRPRPRPFVYPRP  -0.526
16. RRIRCRPPRLPRPRPRPDSNPRP  -0.488
17. RRIRCRPPRLPRPRPRPFDVPRP  -0.479
18. RRIRCRPPRLPRPRPRPGFYPRP  -0.449
19. RRIRCRPPRLPRPRPRPANIPRP  -0.443
20. RRIRCRPPRLPRPRPRPGDKPRP  -0.441
21. RRIRCRPPRLPRPRPRPFNIPRP  -0.436
22. RRIRCRPPRLPRPRPRPFNHPRP  -0.427
23. RRIRCRPPRLPRPRPRPGYFPRP  -0.394
24. RRIRCRPPRLPRPRPRPCMKPRP  -0.368
25. RRIRCRPPRLPRPRPRPDTSPRP  -0.365
26. RRIRCRPPRLPRPRPRPAYFPRP  -0.361
27. RRIRCRPPRLPRPRPRPFEMPRP  -0.36
28. RRIRCRPPRLPRPRPRPEFYPRP  -0.356
29. RRIRCRPPRLPRPRPRPCFSPRP  -0.344
30. RRIRCRPPRLPRPRPRPCPFPRP  -0.332
31. RRIRCRPPRLPRPRPRPFCLPRP  -0.327
32. RRIRCRPPRLPRPRPRPCFPPRP  -0.321
33. RRIRCRPPRLPRPRPRPGSIPRP  -0.311
34. RRIRCRPPRLPRPRPRPFVDPRP  -0.307
35. RRIRCRPPRLPRPRPRPFQPPRP  -0.281
36. RRIRCRPPRLPRPRPRPCLKPRP  -0.277
37. RRIRCRPPRLPRPRPRPCRIPRP  -0.271
38. RRIRCRPPRLPRPRPRPDHDPRP  -0.265
39. RRIRCRPPRLPRPRPRPFMIPRP  -0.259
40. RRIRCRPPRLPRPRPRPEYLPRP  -0.258
41. RRIRCRPPRLPRPRPRPGMQPRP  -0.255
42. RRIRCRPPRLPRPRPRPHEYPRP  -0.253
43. RRIRCRPPRLPRPRPRPHFVPRP  -0.23
44. RRIRCRPPRLPRPRPRPGFKPRP  -0.226
45. RRIRCRPPRLPRPRPRPFFKPRP  -0.197
46. RRIRCRPPRLPRPRPRPHAHPRP  -0.182
47. RRIRCRPPRLPRPRPRPCQDPRP  -0.178
48. RRIRCRPPRLPRPRPRPDHFPRP  -0.175
49. RRIRCRPPRLPRPRPRPFAGPRP  -0.175
50. RRIRCRPPRLPRPRPRPCWKPRP  -0.174
51. RRIRCRPPRLPRPRPRPEYDPRP  -0.173
52. RRIRCRPPRLPRPRPRPFAVPRP  -0.169
53. RRIRCRPPRLPRPRPRPFEVPRP  -0.152
54. RRIRCRPPRLPRPRPRPHAIPRP  -0.139
55. RRIRCRPPRLPRPRPRPDNPPRP  -0.137
56. RRIRCRPPRLPRPRPRPHCYPRP  -0.135
57. RRIRCRPPRLPRPRPRPFFRPRP  -0.116
58. RRIRCRPPRLPRPRPRPDSWPRP  -0.115
59. RRIRCRPPRLPRPRPRPAQCPRP  -0.113
60. RRIRCRPPRLPRPRPRPCQEPRP  -0.108
61. RRIRCRPPRLPRPRPRPCSRPRP  -0.0999
62. RRIRCRPPRLPRPRPRPGNFPRP  -0.0984
63. RRIRCRPPRLPRPRPRPFRLPRP  -0.0979
64. RRIRCRPPRLPRPRPRPCWPPRP  -0.0967
65. RRIRCRPPRLPRPRPRPCGSPRP  -0.0815
66. RRIRCRPPRLPRPRPRPEQDPRP  -0.0796
67. RRIRCRPPRLPRPRPRPCVEPRP  -0.0788
68. RRIRCRPPRLPRPRPRPCDEPRP  -0.0731
69. RRIRCRPPRLPRPRPRPDNIPRP  -0.0703
70. RRIRCRPPRLPRPRPRPDHMPRP  -0.0636
71. RRIRCRPPRLPRPRPRPGHMPRP  -0.0628
72. RRIRCRPPRLPRPRPRPDSDPRP  -0.0612
73. RRIRCRPPRLPRPRPRPEQVPRP  -0.0491
74. RRIRCRPPRLPRPRPRPEISPRP  -0.0399
75. RRIRCRPPRLPRPRPRPCVFPRP  -0.0388
76. RRIRCRPPRLPRPRPRPDDVPRP  -0.0387
77. RRIRCRPPRLPRPRPRPGEDPRP  -0.0369
78. RRIRCRPPRLPRPRPRPDSIPRP  -0.0365
79. RRIRCRPPRLPRPRPRPFHGPRP  -0.036
80. RRIRCRPPRLPRPRPRPDTDPRP  -0.0352
81. RRIRCRPPRLPRPRPRPDYRPRP  -0.0343
82. RRIRCRPPRLPRPRPRPELIPRP  -0.0287
83. RRIRCRPPRLPRPRPRPAKQPRP  -0.0271
84. RRIRCRPPRLPRPRPRPDSSPRP  -0.026
85. RRIRCRPPRLPRPRPRPEGNPRP  -0.0225
86. RRIRCRPPRLPRPRPRPHERPRP  -0.0193
87. RRIRCRPPRLPRPRPRPCIPPRP  -0.01
88. RRIRCRPPRLPRPRPRPEVNPRP  -0.00709
89. RRIRCRPPRLPRPRPRPAWYPRP  -0.0055
90. RRIRCRPPRLPRPRPRPCANPRP  0.00335
91. RRIRCRPPRLPRPRPRPFAYPRP  0.00718
92. RRIRCRPPRLPRPRPRPEFQPRP  0.0126
93. RRIRCRPPRLPRPRPRPEGRPRP  0.0128
94. RRIRCRPPRLPRPRPRPESGPRP  0.0145
95. RRIRCRPPRLPRPRPRPDYLPRP  0.0148
96. RRIRCRPPRLPRPRPRPESFPRP  0.0159
97. RRIRCRPPRLPRPRPRPDREPRP  0.0186
98. RRIRCRPPRLPRPRPRPCQYPRP  0.0234
99. RRIRCRPPRLPRPRPRPGIFPRP  0.0252
100. RRIRCRPPRLPRPRPRPEMDPRP  0.0321
101. RRIRCRPPRLPRPRPRPDRRPRP  0.0327
102. RRIRCRPPRLPRPRPRPGGSPRP  0.0334
103. RRIRCRPPRLPRPRPRPEACPRP  0.0368
104. RRIRCRPPRLPRPRPRPEFCPRP  0.0369
105. RRIRCRPPRLPRPRPRPEQFPRP  0.0372
106. RRIRCRPPRLPRPRPRPAFQPRP  0.0486
107. RRIRCRPPRLPRPRPRPETSPRP  0.0533
108. RRIRCRPPRLPRPRPRPHCCPRP  0.0538
109. RRIRCRPPRLPRPRPRPAMSPRP  0.0552
110. RRIRCRPPRLPRPRPRPDISPRP  0.0772
111. RRIRCRPPRLPRPRPRPHGPPRP  0.0798
112. RRIRCRPPRLPRPRPRPCAEPRP  0.0802
113. RRIRCRPPRLPRPRPRPGGYPRP  0.0874
114. RRIRCRPPRLPRPRPRPALKPRP  0.0946
115. RRIRCRPPRLPRPRPRPGPCPRP  0.0993
116. RRIRCRPPRLPRPRPRPDQLPRP  0.101
117. RRIRCRPPRLPRPRPRPFNSPRP  0.101
118. RRIRCRPPRLPRPRPRPGFDPRP  0.104
119. RRIRCRPPRLPRPRPRPCTIPRP  0.105
120. RRIRCRPPRLPRPRPRPGKWPRP  0.107
121. RRIRCRPPRLPRPRPRPEKIPRP  0.117
122. RRIRCRPPRLPRPRPRPDEEPRP  0.123
123. RRIRCRPPRLPRPRPRPGCCPRP  0.137
124. RRIRCRPPRLPRPRPRPGSPPRP  0.169
125. RRIRCRPPRLPRPRPRPGPSPRP  0.17
126. RRIRCRPPRLPRPRPRPDVWPRP  0.198
127. RRIRCRPPRLPRPRPRPAMAPRP  0.199
128. RRIRCRPPRLPRPRPRPFFAPRP  0.216
129. RRIRCRPPRLPRPRPRPFAPPRP  0.229
130. RRIRCRPPRLPRPRPRPHDPPRP  0.286
131. RRIRCRPPRLPRPRPRPATEPRP  0.309
132. RRIRCRPPRLPRPRPRPHEIPRP  0.322
133. RRIRCRPPRLPRPRPRPEEVPRP  0.362
134. RRIRCRPPRLPRPRPRPELVPRP  0.423
135. RRIRCRPPRLPRPRPRPDLGPRP  0.43
136. RRIRCRPPRLPRPRPRPGQGPRP  0.43
137. RRIRCRPPRLPRPRPRPECGPRP  0.436
138. RRIRCRPPRLPRPRPRPAPWPRP  0.438
139. RRIRCRPPRLPRPRPRPGEAPRP  0.449
140. RRIRCRPPRLPRPRPRPGKPPRP  0.506
141. RRIRCRPPRLPRPRPRPGVWPRP  0.537
142. RRIRCRPPRLPRPRPRPELFPRP  0.676
143. RRIRCRPPRLPRPRPRPEVWPRP  0.725
144. RRIRCRPPRLPRPRPRPFWWPRP  0.925
145. RRIRCRPPRLPRPRPRPEPAPRP  0.971
146. RRIRCRPPRLPRPRPRPFYKPRP  0.979
147. RRIRCRPPRLPRPRPRPEHAPRP  0.999
148. RRIRCRPPRLPRPRPRPDAAPRP  1.03
149. RRIRCRPPRLPRPRPRPEDQPRP  1.21
150. RRIRCRPPRLPRPRPRPATPPRP  1.34
